This passage reports protein stability index results from the supplement of paper PMC10724198.

Data set [1] has as its system Saccharomyces cerevisiae. The data set can be described thus: protein stability index of tFT-peptide fusion (C-terminal peptide) (PSI (0-1 scale)); higher = more stable (slower turnover). As for the experimental part:
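MPS profiling in S. cerevisiae of the tFT-X12 degron library: putative degron peptides plus stable controls, 12 aa, fused to the C-terminus of a sfGFP-mCherry timer. Cells are FACS-sorted into 8 mCherry/sfGFP bins and deep-sequenced. PSI runs from 0 (unstable) to 1 (stable). Backgrounds are wild type, das1Δ and doa10Δ at 30 °C, and wild type, das1Δ, cdc34-1 and cdc53-1 at 37 °C; 2-3 technical replicates each.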

The subject of data set [2] is Saccharomyces cerevisiae. The data set is described as above. To be noted: genetic background: wild type; temperature: 30 C.
Setting [3] is: genetic background: cdc34-1, temperature: 37 C.
[4] abbreviates: genetic background: cdc53-1, temperature: 37 C.
Setting [5] is: genetic background: das1 deletion, temperature: 30 C.
Where [6] appears, read: genetic background: das1 deletion, temperature: 37 C.
[7] abbreviates: genetic background: doa10 deletion, temperature: 30 C.
Where [8] appears, read: genetic background: wild type, temperature: 30 C.
The mark [9] stands for this setting: genetic background: wild type, temperature: 37 C.

± gives the standard deviation of the averaged measurements.
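Also: PSI is a weighted mean of sequencing reads over stability bins, variants kept only with over 10 reads, mCherry proximal and sfGFP distal, peptide attached via GGGS linker.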

WLCLFRFLGVAY: the protein stability index amounted to 0.18 ± 0.024 in the data set on Saccharomyces cerevisiae [1] (setting [3]); 0.245 ± 0.04 in the data set on Saccharomyces cerevisiae [1] (setting [4]); 0.218 ± 0.033 with Saccharomyces cerevisiae [1] (setting [5]); 0.3 ± 0.0097 with Saccharomyces cerevisiae [1] (setting [6]); 0.185 ± 0.005 in the data set on Saccharomyces cerevisiae [1] (setting [7]); 0.216 ± 0.012 in the data set on Saccharomyces cerevisiae [1] (setting [8]). The figures for the protein stability index in the data set with Saccharomyces cerevisiae [1] (setting [9]) and with Saccharomyces cerevisiae [2] were 0.2749 ± 0.0024 and 0.345 ± 0.018, respectively.

As to WLMVGVDWRFVG, the protein stability index in the data set on Saccharomyces cerevisiae [1] (setting [3]) came to 0.436 ± 0.0056; in the data set with Saccharomyces cerevisiae [1] (setting [4]), 0.6254 ± 0.0043; in the data set on Saccharomyces cerevisiae [1] (setting [5]), 0.57 ± 0.024; in the data set on Saccharomyces cerevisiae [1] (setting [6]), 0.7086 ± 0.0033; in the data set on Saccharomyces cerevisiae [1] (setting [7]), 0.0725 ± 0.015; in the data set on Saccharomyces cerevisiae [1] (setting [8]), 0.08 ± 0.012. Also, the protein stability index with Saccharomyces cerevisiae [1] (setting [9]) is 0.0927 ± 0.0084; with Saccharomyces cerevisiae [2], 0.138 ± 0.046.

Turning to WLSWATRRIVLG, the protein stability index in the data set on Saccharomyces cerevisiae [1] (setting [3]) came to 0.552 ± 0.037; with Saccharomyces cerevisiae [1] (setting [4]), 0.611 ± 0.019; in the data set with Saccharomyces cerevisiae [1] (setting [5]), 0.57 ± 0.02; in the data set on Saccharomyces cerevisiae [1] (setting [6]) it was 0.605 ± 0.018; in the data set on Saccharomyces cerevisiae [1] (setting [7]), 0.384 ± 0.008; with Saccharomyces cerevisiae [1] (setting [8]) it was 0.401 ± 0.013. Further, the protein stability index with Saccharomyces cerevisiae [1] (setting [9]) turned out to be 0.527 ± 0.012; in the data set on Saccharomyces cerevisiae [2], 0.47 ± 0.031.

For the sequence WLWYSPIAFTAL, the protein stability index in the data set on Saccharomyces cerevisiae [1] (setting [3]) was 0.632 ± 0.014; in the data set with Saccharomyces cerevisiae [1] (setting [4]), 0.764 ± 0.041; with Saccharomyces cerevisiae [1] (setting [5]), 0.64 ± 0.016; with Saccharomyces cerevisiae [1] (setting [6]), 0.778 ± 0.02; in the data set with Saccharomyces cerevisiae [1] (setting [7]), 0.11 ± 0.019; in the data set on Saccharomyces cerevisiae [1] (setting [8]), 0.107 ± 0.0089. The protein stability index is 0.163 ± 0.0073 in the data set with Saccharomyces cerevisiae [1] (setting [9]) and 0.179 ± 0.015 with Saccharomyces cerevisiae [2].

Consider WPRSFSIILLSR, for which the protein stability index turned out to be 0.322 ± 0.036 in the data set on Saccharomyces cerevisiae [1] (setting [3]); 0.3371 ± 0.002 in the data set with Saccharomyces cerevisiae [1] (setting [4]); 0.265 ± 0.029 with Saccharomyces cerevisiae [1] (setting [5]); 0.4355 ± 0.0031 in the data set on Saccharomyces cerevisiae [1] (setting [6]); 0.361 ± 0.015 in the data set with Saccharomyces cerevisiae [1] (setting [7]); 0.288 ± 0.025 in the data set on Saccharomyces cerevisiae [1] (setting [8]). Besides, the protein stability index in the data set on Saccharomyces cerevisiae [1] (setting [9]) was determined as 0.419 ± 0.0043; in the data set with Saccharomyces cerevisiae [2] it was 0.285 ± 0.027.

WRMRCGLIIGLV: the protein stability index in the data set on Saccharomyces cerevisiae [1] (setting [3]) is 0.0313 ± 0.0029; in the data set on Saccharomyces cerevisiae [1] (setting [4]), 0.0521 ± 0.023; in the data set on Saccharomyces cerevisiae [1] (setting [5]), 0.155 ± 0.028; in the data set on Saccharomyces cerevisiae [1] (setting [6]), 0.164 ± 0.0025; in the data set with Saccharomyces cerevisiae [1] (setting [7]), 0.1 ± 0.025; in the data set with Saccharomyces cerevisiae [1] (setting [8]), 0.134 ± 0.026. The results for the protein stability index with Saccharomyces cerevisiae [1] (setting [9]) and with Saccharomyces cerevisiae [2] were 0.125 ± 0.018 and 0.183 ± 0.032, respectively.

With WRVFRPSLRLFA, the protein stability index in the data set with Saccharomyces cerevisiae [1] (setting [3]) came out at 0.531 ± 0.04; in the data set on Saccharomyces cerevisiae [1] (setting [4]) it was 0.61 ± 0.018; with Saccharomyces cerevisiae [1] (setting [5]), 0.467 ± 0.017; in the data set on Saccharomyces cerevisiae [1] (setting [6]), 0.598 ± 0.012; in the data set on Saccharomyces cerevisiae [1] (setting [7]) it was 0.287 ± 0.0051; in the data set on Saccharomyces cerevisiae [1] (setting [8]) it was 0.33 ± 0.021. Further, the protein stability index with Saccharomyces cerevisiae [1] (setting [9]) stood at 0.507 ± 0.036; in the data set with Saccharomyces cerevisiae [2], 0.393 ± 0.051.

WVFMVILLVFLV: the protein stability index in the data set on Saccharomyces cerevisiae [1] (setting [3]) amounted to 0.216 ± 0.0073; with Saccharomyces cerevisiae [1] (setting [4]) it was 0.268 ± 0.017; with Saccharomyces cerevisiae [1] (setting [5]), 0.257 ± 0.021; in the data set with Saccharomyces cerevisiae [1] (setting [6]), 0.33 ± 0.038; in the data set with Saccharomyces cerevisiae [1] (setting [7]) it was 0.28 ± 0.0053; in the data set on Saccharomyces cerevisiae [1] (setting [8]), 0.228 ± 0.022. The protein stability index in the data set on Saccharomyces cerevisiae [1] (setting [9]) came to 0.315 ± 0.014; with Saccharomyces cerevisiae [2], 0.3041 ± 0.0026.

Take YAFYLFSRILAA: the protein stability index stood at 0.232 ± 0.0091 with Saccharomyces cerevisiae [1] (setting [3]); 0.302 ± 0.075 in the data set with Saccharomyces cerevisiae [1] (setting [4]); 0.236 ± 0.025 with Saccharomyces cerevisiae [1] (setting [5]); 0.3486 ± 0.0015 in the data set with Saccharomyces cerevisiae [1] (setting [6]); 0.1792 ± 0.0014 in the data set on Saccharomyces cerevisiae [1] (setting [7]); 0.208 ± 0.016 in the data set with Saccharomyces cerevisiae [1] (setting [8]). In addition, the protein stability index in the data set on Saccharomyces cerevisiae [1] (setting [9]) was 0.285 ± 0.013; in the data set on Saccharomyces cerevisiae [2], 0.2795 ± 0.00053.

With YALVQHRWVYYF, the protein stability index in the data set with Saccharomyces cerevisiae [1] (setting [3]) was 0.4 ± 0.0056; with Saccharomyces cerevisiae [1] (setting [4]), 0.633 ± 0.061; in the data set with Saccharomyces cerevisiae [1] (setting [5]) it was 0.625 ± 0.019; in the data set on Saccharomyces cerevisiae [1] (setting [6]), 0.724 ± 0.011; with Saccharomyces cerevisiae [1] (setting [7]), 0.0888 ± 0.011; with Saccharomyces cerevisiae [1] (setting [8]), 0.0761 ± 0.011. The values for the protein stability index in the data set on Saccharomyces cerevisiae [1] (setting [9]) and in the data set with Saccharomyces cerevisiae [2] were 0.0856 ± 0.0031 and 0.119 ± 0.031, respectively.

For YCFLSWVLMCCF, the protein stability index was 0.457 ± 0.019 with Saccharomyces cerevisiae [1] (setting [3]); 0.4613 ± 0.0037 in the data set with Saccharomyces cerevisiae [1] (setting [4]); 0.399 ± 0.018 in the data set with Saccharomyces cerevisiae [1] (setting [5]); 0.438 ± 0.011 in the data set on Saccharomyces cerevisiae [1] (setting [6]); 0.421 ± 0.025 with Saccharomyces cerevisiae [1] (setting [7]); 0.386 ± 0.0065 in the data set with Saccharomyces cerevisiae [1] (setting [8]). The protein stability index in the data set with Saccharomyces cerevisiae [1] (setting [9]) was 0.42 ± 0.0059; in the data set with Saccharomyces cerevisiae [2], 0.406 ± 0.022.

Take YFNGLLPLVLVF: the protein stability index in the data set with Saccharomyces cerevisiae [1] (setting [3]) is 0.0299 ± 0.0068; in the data set with Saccharomyces cerevisiae [1] (setting [4]), 0.0434 ± 0.004; with Saccharomyces cerevisiae [1] (setting [5]), 0.074 ± 0.01; in the data set with Saccharomyces cerevisiae [1] (setting [6]) it was 0.0623 ± 0.018; with Saccharomyces cerevisiae [1] (setting [7]), 0.0659 ± 0.018; in the data set with Saccharomyces cerevisiae [1] (setting [8]) it was 0.0601 ± 0.0082. The protein stability index was determined as 0.0517 ± 0.028 with Saccharomyces cerevisiae [1] (setting [9]) and 0.0927 ± 0.049 in the data set on Saccharomyces cerevisiae [2].

On to YHFSLFFPLSLP, for which the protein stability index with Saccharomyces cerevisiae [1] (setting [3]) worked out at 0.685 ± 0.022; in the data set on Saccharomyces cerevisiae [1] (setting [4]), 0.73 ± 0.028; in the data set on Saccharomyces cerevisiae [1] (setting [5]), 0.607 ± 0.015; in the data set on Saccharomyces cerevisiae [1] (setting [6]) it was 0.711 ± 0.0088; with Saccharomyces cerevisiae [1] (setting [7]), 0.378 ± 0.0088; in the data set with Saccharomyces cerevisiae [1] (setting [8]), 0.383 ± 0.017. Moreover, the protein stability index in the data set with Saccharomyces cerevisiae [1] (setting [9]) was 0.568 ± 0.032; in the data set on Saccharomyces cerevisiae [2], 0.482 ± 0.0063.
